Data as given in PMC10156175 (Cell, 2023).
Values belong to the binder of their own block, whether it stands above or below them.

Legend:
[1] = target: SCF^FBXW7 (CUL1-RBX1-SKP1-FBXW7), pre-formed (human, UniProt Q13616;P62877;P63208;Q969H0, for the native gels: labelled with fluorescein (site not stated)); assay: native gel or EMSA
[2] = target: SCF^SKP2 (CUL1-RBX1-SKP1-SKP2), pre-formed (human, UniProt Q13616;P62877;P63208;Q13309); assay: native gel or EMSA
CUL1 = CUL1 (human, UniProt Q13616); assay: cryo-EM structure
Sequence of CUL1 (Q13616 whole entry): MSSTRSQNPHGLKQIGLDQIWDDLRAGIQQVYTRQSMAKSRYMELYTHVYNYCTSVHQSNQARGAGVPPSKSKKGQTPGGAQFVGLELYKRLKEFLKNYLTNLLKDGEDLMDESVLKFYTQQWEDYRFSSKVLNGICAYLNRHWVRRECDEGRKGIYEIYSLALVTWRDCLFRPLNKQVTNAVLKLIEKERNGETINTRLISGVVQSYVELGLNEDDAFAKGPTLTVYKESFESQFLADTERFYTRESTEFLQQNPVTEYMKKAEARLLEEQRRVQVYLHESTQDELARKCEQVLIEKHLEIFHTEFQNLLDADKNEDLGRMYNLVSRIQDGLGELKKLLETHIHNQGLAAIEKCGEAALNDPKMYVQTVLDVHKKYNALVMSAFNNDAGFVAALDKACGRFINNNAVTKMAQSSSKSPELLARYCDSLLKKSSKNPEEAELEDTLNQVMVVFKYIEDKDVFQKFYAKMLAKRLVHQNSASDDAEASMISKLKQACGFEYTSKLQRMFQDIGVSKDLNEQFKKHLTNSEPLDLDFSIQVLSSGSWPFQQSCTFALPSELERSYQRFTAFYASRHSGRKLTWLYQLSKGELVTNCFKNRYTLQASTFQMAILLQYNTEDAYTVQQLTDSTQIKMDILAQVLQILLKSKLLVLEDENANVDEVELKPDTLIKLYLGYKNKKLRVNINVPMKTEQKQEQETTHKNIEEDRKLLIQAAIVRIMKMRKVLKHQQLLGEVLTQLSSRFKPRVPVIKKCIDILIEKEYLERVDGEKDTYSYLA

Sequence of SCF^SKP2 (CUL1-RBX1-SKP1-SKP2), pre-formed (Q13616 whole entry, chain 1 of 4): as the sequence (Q13616 whole entry) above
Sequence of SCF^SKP2 (CUL1-RBX1-SKP1-SKP2), pre-formed (P62877 5-108, chain 2 of 4): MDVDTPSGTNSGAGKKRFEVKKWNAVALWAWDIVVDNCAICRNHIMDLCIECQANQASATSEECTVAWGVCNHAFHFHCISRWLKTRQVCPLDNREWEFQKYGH
Sequence of SCF^SKP2 (CUL1-RBX1-SKP1-SKP2), pre-formed (P63208 whole entry, chain 3 of 4): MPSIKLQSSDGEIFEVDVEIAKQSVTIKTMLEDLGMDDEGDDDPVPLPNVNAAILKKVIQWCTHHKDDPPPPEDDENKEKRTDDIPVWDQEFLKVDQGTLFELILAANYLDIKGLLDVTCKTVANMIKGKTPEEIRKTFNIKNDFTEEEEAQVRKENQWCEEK
Sequence of SCF^SKP2 (CUL1-RBX1-SKP1-SKP2), pre-formed (Q13309 whole entry, chain 4 of 4): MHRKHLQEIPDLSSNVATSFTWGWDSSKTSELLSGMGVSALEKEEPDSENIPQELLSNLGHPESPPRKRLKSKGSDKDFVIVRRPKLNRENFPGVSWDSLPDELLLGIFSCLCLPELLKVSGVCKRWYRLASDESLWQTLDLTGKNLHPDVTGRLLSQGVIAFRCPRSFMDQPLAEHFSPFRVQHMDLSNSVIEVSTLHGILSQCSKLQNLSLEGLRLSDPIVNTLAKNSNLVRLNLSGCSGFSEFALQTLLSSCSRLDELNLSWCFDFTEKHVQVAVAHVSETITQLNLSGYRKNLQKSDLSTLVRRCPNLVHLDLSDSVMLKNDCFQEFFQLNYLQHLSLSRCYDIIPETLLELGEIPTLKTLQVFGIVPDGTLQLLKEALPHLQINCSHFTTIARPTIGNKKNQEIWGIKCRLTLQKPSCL
Sequence of SCF^FBXW7 (CUL1-RBX1-SKP1-FBXW7), pre-formed (Q13616 whole entry, chain 1 of 3): as the sequence (Q13616 whole entry) above
Sequence of SCF^FBXW7 (CUL1-RBX1-SKP1-FBXW7), pre-formed (P62877 5-108, chain 2 of 3): as the sequence (P62877 5-108, chain 2 of 4) above
Sequence of SCF^FBXW7 (CUL1-RBX1-SKP1-FBXW7), pre-formed (P63208 whole entry, chain 3 of 3): as the sequence (P63208 whole entry, chain 3 of 4) above

- binding result [1]: binds
- binding result [2]: binds
B1: CAND1 (Cullin-associated NEDD8-dissociated protein 1) (natural protein)
chain: MASASYHISNLLEKMTSSDKDFRFMATNDLMTELQKDSIKLDDDSERKVVKMILKLLEDKNGEVQNLAVKCLGPLVSKVKEYQVETIVDTLCTNMLSDKEQLRDISSIGLKTVIGELPPASSGSALAANVCKKITGRLTSAIAKQEDVSVQLEALDIMADMLSRQGGLLVNFHPSILTCLLPQLTSPRLAVRKRTIIALGHLVMSCGNIVFVDLIEHLLSELSKNDSMSTTRTYIQCIAAISRQAGHRIGEYLEKIIPLVVKFCNVDDDELREYCIQAFESFVRRCPKEVYPHVSTIINICLKYLTYDPNYNYDDEDEDENAMDADGGDDDDQGSDDEYSDDDDMSWKVRRAAAKCLDAVVSTRHEMLPEFYKTVSPALISRFKEREENVKADVFHAYLSLLKQTRPVQSWLCDPDAMEQGETPLTMLQSQVPNIVKALHKQMKEKSVKTRQCCFNMLTELVNVLPGALTQHIPVLVPGIIFSLNDKSSSSNLKIDALSCLYVILCNHSPQVFHPHVQALVPPVVACVGDPFYKITSEALLVTQQLVKVIRPLDQPSSFDATPYIKDLFTCTIKRLKAADIDQEVKERAISCMGQIICNLGDNLGSDLPNTLQIFLERLKNEITRLTTVKALTLIAGSPLKIDLRPVLGEGVPILASFLRKNQRALKLGTLSALDILIKNYSDSLTAAMIDAVLDELPPLISESDMHVSQMAISFLTTLAKVYPSSLSKISGSILNELIGLVRSPLLQGGALSAMLDFFQALVVTGTNNLGYMDLLRMLTGPVYSQSTALTHKQSYYSIAKCVAALTRACPKEGPAVVGQFIQDVKNSRSTDSIRLLALLSLGEVGHHIDLSGQLELKSVILEAFSSPSEEVKSAASYALGSISVGNLPEYLPFVLQEITSQPKRQYLLLHSLKEIISSASVVGLKPYVENIWALLLKHCECAEEGTRNVVAECLGKLTLIDPETLLPRLKGYLISGSSYARSSVVTAVKFTISDHPQPIDPLLKNCIGDFLKTLEDPDLNVRRVALVTFNSAAHNKPSLIRDLLDTVLPHLYNETKVRKELIREVEMGPFKHTVDDGLDIRKAAFECMYTLLDSCLDRLDIFEFLNHVEDGLKDHYDIKMLTFLMLVRLSTLCPSAVLQRLDRLVEPLRATCTTKVKANSVKQEFEKQDELKRSAMRAVAALLTIPEAEKSPLMSEFQSQISSNPELAAIFESIQKDSSSTNLESMDTS
modifications: for the native gels only: TAMRA-(PEG)5-LPETGG peptide joined to the amino-terminus by sortase

- binding result (CUL1): binds
B2: FBXW7 (263-C) (domain or fragment)
chain: TQVKHMMQVIEPQFQRDFISLLPKELALYVLSFLEPKDLLQAAQTCRYWRILAEDNLLWREKCKEEGIDEPLHIKRRKVIKPGFIHSPWKSAYIRQHRIDTNWRRGELKSPKVLKGHDDHVITCLQFCGNRIVSGSDDNTLKVWSAVTGKCLRTLVGHTGGVWSSQMRDNIIISGSTDRTLKVWNAETGECIHTLYGHTSTVRCMHLHEKRVVSGSRDATLRVWDIETGQCLHVLMGHVAAVRCVQYDGRRVVSGAYDFMVKVWDPETETCLHTLQGHTNRVYSLQFDGIHVVSGSLDTSIRVWDVETGNCIHTLTGHQSLTSGMELKDNILVSGNADSTVKIWDIKTGQCLQTLQGPNKHQSAVTCLQFNKNFVITSSDDGTVKLWDLKTGEFIRNLVTLESGGSGGVVWRIRASNTKLVCAVGSRNGTEETKLLVLDFDVDMK
